For the assay, the target named is Desulfovibrio vulgaris flagellin (Desulfovibrio vulgaris). Kind of assay: MST.

We go through 1 molecule from article PMC10763354 (2024).

B1: leucine-rich repeat containing 19 (LRRC19) protein (receptor)
chain: SKREVQCNFTEKNYTLIPADIKKDVTILDLSYNQITLNGTDTRVLQTYFLLTELYLIENKVTILHNNGFGNLSSLEILNICRNSIYVIQQGAFLGLNKLKQLYLCQNKIEQLNADVFVPLRSLKLLNLQGNLISYLDVPPLFHLELITLYGNLWNCSCSLFNLQNWLNTSNVTLENENITMCSYPNSLQSYNIKTVPHKAECHSKFPSSVTEDLYIHFQPISNSIFNSSSNNLTRNSEHEPLGKSW
modifications: NT647 fluorescence dye (in the MST experiments only)
Consider B1, for which the Kd worked out at 1.05 µM.

The term Kd denotes the constant that tells how readily two partners part at equilibrium. Higher therefore signals a looser complex.
